Patent publication US20150150157A1, “PREPHENATE DEHYDROGENASES AND AROGENATE DEHYDROGENASES THAT ARE INSENSITIVE TO EFFECTOR FEEDBACK INHIBITION AND METHODS OF USING THE SAME” (Wisconsin Alumni Research Foundation, priority 2013, published 2015)

What was measured:
Type in all cases: biochemical
[1] = tested on: CM activity in the cytosol; assay: CM activity in cytosolic fraction of soybean leaf with and without effector; details: 1 mM effector
Procedure: (§1) CM activity from crude plant extracts and from cytosolic and plastidic fractions (FIG. 4I) was determined in the presence and absence of 1 mM L-Tyr or L-Trp (FIG. 4I) by detecting phenylpyruvate formation using the same HPLC method for HPLA detection (see above). Assays were set up as described above but were incubated for 60 min at 37° C. before addition of 1 N HCl. Phenylpyruvate was detected by UV absorbance at 270 nm and quantified by comparison to the authentic phenylpyruvate standard (Sigma-Aldrich).
(§2) Ten grams of 4-week-old soybean leaves were harvested at the end of the night to deplete starch. The fresh tissues were homogenized using a Polytron (Brinkmann, Westhury, N.Y.) in 10 ml of the plastid isolation buffer (0.5 M sorbitol, 20 mM HEPES (pH 7.4), 10 mM KCl, 1 mM MgCl2, 1 mM EDTA, 5 mM DTT and 1% BSA) (Kong and Rawsthorne. Plant J, 6: 795-805 (1994)). The homogenate was filtered through two layers of micracloth. The residual homogenate left on the micracloth was homogenized again in 10 ml of the isolation buffer and passed through two layers of micracloth, which was repeated once more to yield ˜30 ml of homogenate. The combined homogenate was centrifuged at 2,500 g for 5 min. The pellet was washed twice with the isolation buffer, resuspended in 4 ml of lysis buffer (25 mM HEPES (pH 7.5), 50 mM KCl) and left on ice for 20 min to rapture the plastids. […]

[2] = tested on: CM activity in the plastid fraction; assay: CM activity in plastidic fraction of soybean leaf with and without effector; details: 1 mM effector
Procedure: as §1, §2

[3] = Inhibition analysis: L-Tyr sensitivity of ADH activity of recombinant AtADH2; details: for ADH activity: 1 mM L-arogenate, 1 mM NADP+, 37° C., 15 min
Procedure: (§3) ADH and PDH reactions using GmPDH1, Glyma11g35760, MtPDH1 and AtADH2 (FIG. 5A) contained 200 mM HEPES (pH 7.3), 50 mM KCl, 10% ethylene glycol, 1 mN4 NADP^+ and 1 mM substrate (L-arogenate or prephenate, respectively). Reactions were started by addition of enzyme and incubated at 37° C. for 15 min in the presence of increasing concentrations of effectors: L-Tyr FIG. 5A), L-Phe, L-Trp and HPP. Tyr was dissolved in basic conditions (0.025 N NaOH) to dissolve at high concentrations (up to 10 mM), though 200 mM HEPES maintained the final reaction pH at 7.6. Tyr sensitivity of purified recombinant GmPDH1 and MtPDH1 was also tested at prephenate concentrations ranging from […] to 59 μM, below the K values for GmPDH1 and MtPDH1, while keeping the L-Tyr concentration constant at 1 mM (FIG. 13). Enzyme activity was measured for the production of reduced cofactor (NADPH) at 340 nm using a spectrophotometer, except for crude soybean extracts, which were analyzed by HPLC after 45 min incubation and reduction to HPLA as described above.

[4] = Qualitative HPLC detection of PDH activity in E. coli cell lysates expressing candidate enzymes; details: 2 mM prephenate, saturating conditions
Procedure: ADH and PDH reactions contained 25 mM HEPES (pH 7.5), 50 mM KCl, 10% ethylene glycol, 1 mM NADP (or NAD^+), 2 mM substrate (L-arogenate or prephenate, respectively) unless otherwise noted. Arogenate was prepared by enzymatic conversion from prephenate (Sigma-Aldrich), as previously reported. Reactions were started by addition of enzyme from various sources and incubated at 37′ C. for a given amount of time, as noted below,
HPLC-based methods were used to directly detect the final products of ADH and PDH assays, Tyr and HPP, respectively from crude E. coli extracts (FIG. 3B and FIG. 3C) and crude plant extracts (FIG. 2A and FIG. 6). For HPLC detection of PDH activity, reactions were incubated for 45 min and terminated by addition of NaBH4, which converts the reaction product HPP (which produced multiple peaks; FIG. 6) into hydroxyphenyllactic acid (HPLA), followed by neutralization with 100 μl of 6 N HCl. The conversion and recovery rate was 80±1.5% s.d. which was taken into account for the calculation of specific activity from crude plant extracts (FIG. 2C). HPLA was detected as a single peak (FIG. 2A) after being separated by HPLC (Agilent 1260, Santa Clara, Calif.) equipped with a ZORBA X SB-C18 column (Agitent) using a 6-min isocratic elution at 25% methanol in 0.1% phosphoric acid, followed by a 20-min linear gradient of 25-60% methanol at a flow rate of 1.0 ml/min. HPLA was detected using UV absorbance at 270 nm and quantified by a calibration curve generated from the authentic HPLA standard (Sigma-Aldrich). For HPLC-based detection of ADH activity (FIG. 3B), reactions were incubated for 45 min and terminated by addition of methanol to a final concentration of 66% (v/v). The product, Tyr, was derivatized with OPA and separated on a ZORBAX eclipse-XDB C18 column (Agilent) using a 30-min linear gradient of 20-45% methanol in 0.1% animonium acetate at a flow rate of 0.8 ml/min. Tyr was detected by UV absorption at 336 nm and quantified on the basis of a calibration curve generated by the authentic Tyr standard (Acros, Geel, Belgium).
The crude enzyme extracts were first subjected to PDH and ADH assays using saturating conditions to screen for any detectable PDH and/or ADH activity (FIG. 3B and FIG. 3C). ADH activity was detected from all five candidates. In contrast, PDH activity was detected only in Glyma11a35760 and Glyma18g02650 as well as their closest homolog from Medicago (Mt3g071980) but not in Glyma5g07870, Glyma17g13150 and Glyma14g05990 (FIG. 3C).

[5] = Inhibition analysis: L-Tyr sensitivity of PDH activity, crude E. coli extract expressing Glyma11g35760; details: for PDH activity: crude E. coli extract
Procedure: For recombinant protein expression, the cloned pFT28a vectors were introduced into Rosetta-2 E. coli competent cells (Novagen) and cultured overnight at 37° C., 200 r.p.m. in 10 ml LB medium containing kanamycin (100 μg/ml) and chloramphenicol (100 μg/ml). Two milliliters of the overnight culture were transferred to 50 ml LB medium with the same antibiotics and further incubated at 37° C. and 200 r.p.m. until the OD600 reached 0.3. The temperature was then changed to 18° C. and, after 1 h, isopropyl β-D-I-thiogalactopyranoside (IPTG, […] final concentration) was added to induce recombinant protein expression. After overnight incubation at 18° C. under constant shaking at 200 r.p.m, cultures were harvested by centrifugation at 2,000 g for 30 min at 4° C. and the pellet was resuspended in an appropriate volume of lysis buffer (25 mM HEPES, pH 7, 50 mM KCl, 10% ethylene glycol, 1 mM phenylmethylsulfortyl fluoride (PMSF) and 1 mM DTT) calculated on the basis of the formula (OD600×ml volume of culture)/30. The resuspended pellet was sonicated three times for 15 s. The cell lysate was centrifuged at 16,000 g for 10 min at 4° C. and the supernatant was applied to a column containing 500 μl PerfectPro Ni-NTA resin (5 PRIME, Hamburg, Germany). The column was washed with ten times the bed volume of wash buffer 1 (50 mM sodium phosphate buffer, pH 8.0, 300 mM NaCl, 20 mM imidazole) followed by ten times the bed volume of wash buffer II (50 mM sodium phosphate buffer, pH 8.0, 300 mM NaCl, 40 mM imidazole) and then wash buffer III (50 mM sodium phosphate buffer, pH 8.0, 300 mM NaCl, 60 mM imidazole). The recombinant enzymes containing an N-terminal His6 tag were eluted from the resin with 1 ml of elution buffer (50 mM sodium phosphate buffer, pH. 8.0, 300 mM NaCl, 500 mM imidazole) and desalted as described above. The purity of the purified recombinant enzymes was estimated by running on SDS-PAGE gel (FIG. 12) and analyzing with ImageJ (http://imagej.nih.gov/ij/). The recombinant enzyme of Glyma11g35760 was tested for Tyr sensitivity (FIG. 5A) using crude E. coli extract as its purification was not successful owing to its low expression (FIG. 3B and FIG. 3C) and insolubility.
as §3

Molecule: N[C@@H](Cc1c[nH]c2ccccc12)C(=O)O [L-Trp, tryptophan]
- CM activity in the cytosol [1]: increased
- induction of CM activity in the plastid fraction [2]: approximately threefold

Molecule: N[C@@H](Cc1ccc(O)cc1)C(=O)O [L-Tyr, Tyrosine]
- CM activity in the cytosol [1]: only slightly decreased
- CM activity in the plastid fraction [2]: completely inhibited

B1: AtADH2: Arabidopsis thaliana arogenate dehydrogenase 2, recombinant enzyme, inhibited by L-Tyr (protein, UniProt Q9LMR3 37-358, looked up)
Arogenate dehydrogenase 2, …: IDAAQIFDYETQLKSEYRKSSALKIAVLGFGNFGQFLSKTLIRHGHDLITHSRSDYSDAANSIGARFFDNPHDLCEQHPDVVLLCTSILSTESVLRSFPFQRLRRSTLFVDVLSVKEFPKALFIKYLPKEFDILCTHPMFGPESGKHSWSGLPFVYDKVRIGDAASRQERCEKFLRIFENEGCKMVEMSCEKHDYYAAGSQFVTHTMGRVLEKYGVESSPINTKGYETLLDLVENTSSDSFELFYGLFMYNPNALEQLERLDMAFESVKKELFGRLHQQYRKQMFGGEVQSPKKTEQKLLNDGGVVPMNDISSSSSSSSSSS
- reduction of ADH activity ([3]; 100 μM L-Tyr): ~75%
- ADH activity ([3]; L-Tyr 0 mM): 923 ± 34 uKat/mg
- ADH activity ([3]; L-Tyr 0.01 mM): 766 ± 35 uKat/mg
- ADH activity ([3]; L-Tyr 0.1 mM): 251 ± 45 uKat/mg
- ADH activity in the presence of L-Tyr ([3]; ≧1 mM L-Tyr): abolished

B2: Glyma11g35760: soybean PDH enzyme, paralog of Glyma18g02650, tested as crude E. coli extract (protein)
chain: MTTMSTSSSSQSLKIGIVGFGNFGQFLAKTMIKQGHTLTATSRSDYSQLCLQMGIHFFRDVSAFLAADIDVIVLCTSILSLSEVVGSMPLTSLKRPTLFVDVLSVKEHPRELLLRELPEDSDILCTHPMFGPQTANNGWTDHTFMYDKVRIRDEATCSSFIQIFATEGCKMVQMSCEEHDRAAAKSQFITHTIGRTLGEMDIQSTPIDTKGFETLVKLKETMMRNSFDLYSGLFVYNRFARQELENLEHAFYKVKETLMIQRSNGEQGHKRTES
modifications: Glycine max
notes: soybean PDH enzyme, paralog of Glyma18g02650, tested as crude E. coli extract
- PDH activity (qualitative detection) [4]: detected
- inhibition of PDH activity by L-Tyr ([5]; E. coli extract expressing the enzyme): not inhibited
- PDH activity ([5]; L-Tyr 0 mM): 1219 ± 76 pKat/mg
- PDH activity ([5]; L-Tyr 0.01 mM): 1211 ± 39 pKat/mg
- PDH activity ([5]; L-Tyr 0.1 mM): 1173 ± 16 pKat/mg
- PDH activity ([5]; L-Tyr 1.0 mM): 1250 ± 63 pKat/mg
- PDH activity ([5]; L-Tyr 10 mM): 1109 ± 79 pKat/mg

B3: Glyma14g05990: soybean enzyme having predominately arogenate dehydrogenase activity (protein)
chain: MSTWSLKIGVVGFGSFGQFLAKTMIKQGHTLRATSRTDYSLLCLPMGIQFFRDVAAFLEADNDVILVCTSILSLSEVLSSMPLTCLKRSTLFVDVLSVKEHPRNLLIKVLPEESDILCTHPMFGPDSGKDGWQDLTFVYDKVRIRDEAICSSFLHIFASEGCRMLQMSCEEHDKIAAKSQFITHTIGRTLAEMDIKSTPIDTKGFHSLVQLKDTTIRDSFDLYSGLFLHNRFAVQELENLEHALHKVKEMLVQRKSEELGLEKTEC
modifications: Glycine max
- PDH activity (qualitative detection) [4]: not
